Laboratory results taken from article PMC4613909.

Target: Artemia salina 40S ribosomal subunit (Artemia salina)
Test: iRIA (in vitro Ribosomes Interaction Assay, microwell solid-phase binding); 40S immobilised, labeled 60S displaced by 5-fold unlabeled 60S; room temperature, 10 minutes

percent displacement of labeled 60S by 5-fold unlabeled 60S: 50%
Substance: Artemia salina 60S ribosomal subunit (mature) (complex)
